Columns and labels:
[1] = target: T1, human Mac-1 (integrin αMβ2, CD11b/CD18) (human, UniProt P11215 17-1152; P05107 23-769); experiment: flow cytometry, HEK293/Mac-1 cells, PBS (Mock), 10 µg/ml of this antibody; binding of reporter mAb KIM127 read
Protocol: (§1) The HEK293/Mac-1 cells (clone1-4) were counted and washed twice with staining buffer (PBS containing 1% FBS, and 0.1% sodium azide). Cells were adjusted at a concentration of 1×10⁵ cells/ml in staining buffer and treated with/without 0.25 mM MnCl₂ (Sigma). Cells were treated with anti-Mac-1 antibodies and fluorescent conjugated anti-human IgG4 antibodies and incubated for 15 mins. After washing with the staining buffer, the cells were analyzed by flow cytometry. In some examples, these cells were treated with the antibodies (ICRF44, KIM127, m24, or isotype control) in the presence or absence 10 μg/ml anti-Mac-1 antibodies. The cells were then incubated at 37° C. for 30 min. After washing with the staining buffer, the cells were analyzed by flow cytometry.
(§2) TABLE III The anti-Mac-1 antibodies can serve as agonist to enhance the conformational change of Mac-1. HEK293/Mac-1 cells (clone1-4) were incubated with 10 μg/ml anti-Mac-1 antibodies under the PBS (Mock) condition. Binding of KIM127 or m24 was detected using flow cytometry.

[2] = target: T1, human Mac-1 (integrin αMβ2, CD11b/CD18); experiment: flow cytometry, HEK293/Mac-1 cells; MFI in PBS over MFI in PBS/MnCl2
Protocol: as §1
(§3) TABLE II The anti-Mac-1 antibodies selectively bind to different statuses of human Mac-1. HEK293/Mac-1 cells (clone1-4) were incubated in PBS (Mock), or PBS/MnCl₂ (Mn²⁺). Binding of isotype control IgG, the CD11b specific mAb (ICRF44), the CD11b activation-sensing mAb (CBRM1/5), or the screened anti-Mac-1 antibody was detected using flow cytometry.

[3] = target: T1, human Mac-1 (integrin αMβ2, CD11b/CD18); experiment: flow cytometry, HEK293/Mac-1 cells, PBS (Mock), 10 µg/ml of this antibody; binding of reporter mAb m24 read
Protocol: as §1, §2

[4] = target: T1, human Mac-1 (integrin αMβ2, CD11b/CD18); experiment: flow cytometry, HEK293/Mac-1 cells, PBS/MnCl2 (Mn2+), 10 µg/ml of this antibody; binding of reporter mAb m24 read
Protocol: as §1
(§4) TABLE IV The anti-Mac-1 antibody can serve as an antagonist to reduce the conformational change of Mac-1. HEK293/Mac-1 cells (clone1-4) were incubated with 10 μg/ml anti-Mac-1 antibodies under the PBS/MnCl₂ (Mn²⁺) condition. Binding of KIM127 or m24 was detected using flow cytometry.

[5] = target: T1, human Mac-1 (integrin αMβ2, CD11b/CD18); experiment: flow cytometry, HEK293/Mac-1 cells, PBS/MnCl2 (Mn2+), 10 µg/ml of this antibody; binding of reporter mAb KIM127 read
Protocol: as §1, §4

[6] = target: T1, human Mac-1 (integrin αMβ2, CD11b/CD18); experiment: flow cytometry, HEK293/Mac-1 cells (clone 1-4), PBS (Mock)
Protocol: as §1, §3

[7] = target: T1, human Mac-1 (integrin αMβ2, CD11b/CD18); experiment: flow cytometry, HEK293/Mac-1 cells (clone 1-4), PBS/MnCl2 (Mn2+)
Protocol: as §1, §3

[8] = target: T2, mouse Mac-1 (mouse, UniProt P05555 17-1153; P11835 24-771); experiment: flow cytometry, Raw 264.7 cells
T2 construct: whole, on cells; also called Raw264.7
T2 sequence (P05555 17-1153, chain 1 of 2): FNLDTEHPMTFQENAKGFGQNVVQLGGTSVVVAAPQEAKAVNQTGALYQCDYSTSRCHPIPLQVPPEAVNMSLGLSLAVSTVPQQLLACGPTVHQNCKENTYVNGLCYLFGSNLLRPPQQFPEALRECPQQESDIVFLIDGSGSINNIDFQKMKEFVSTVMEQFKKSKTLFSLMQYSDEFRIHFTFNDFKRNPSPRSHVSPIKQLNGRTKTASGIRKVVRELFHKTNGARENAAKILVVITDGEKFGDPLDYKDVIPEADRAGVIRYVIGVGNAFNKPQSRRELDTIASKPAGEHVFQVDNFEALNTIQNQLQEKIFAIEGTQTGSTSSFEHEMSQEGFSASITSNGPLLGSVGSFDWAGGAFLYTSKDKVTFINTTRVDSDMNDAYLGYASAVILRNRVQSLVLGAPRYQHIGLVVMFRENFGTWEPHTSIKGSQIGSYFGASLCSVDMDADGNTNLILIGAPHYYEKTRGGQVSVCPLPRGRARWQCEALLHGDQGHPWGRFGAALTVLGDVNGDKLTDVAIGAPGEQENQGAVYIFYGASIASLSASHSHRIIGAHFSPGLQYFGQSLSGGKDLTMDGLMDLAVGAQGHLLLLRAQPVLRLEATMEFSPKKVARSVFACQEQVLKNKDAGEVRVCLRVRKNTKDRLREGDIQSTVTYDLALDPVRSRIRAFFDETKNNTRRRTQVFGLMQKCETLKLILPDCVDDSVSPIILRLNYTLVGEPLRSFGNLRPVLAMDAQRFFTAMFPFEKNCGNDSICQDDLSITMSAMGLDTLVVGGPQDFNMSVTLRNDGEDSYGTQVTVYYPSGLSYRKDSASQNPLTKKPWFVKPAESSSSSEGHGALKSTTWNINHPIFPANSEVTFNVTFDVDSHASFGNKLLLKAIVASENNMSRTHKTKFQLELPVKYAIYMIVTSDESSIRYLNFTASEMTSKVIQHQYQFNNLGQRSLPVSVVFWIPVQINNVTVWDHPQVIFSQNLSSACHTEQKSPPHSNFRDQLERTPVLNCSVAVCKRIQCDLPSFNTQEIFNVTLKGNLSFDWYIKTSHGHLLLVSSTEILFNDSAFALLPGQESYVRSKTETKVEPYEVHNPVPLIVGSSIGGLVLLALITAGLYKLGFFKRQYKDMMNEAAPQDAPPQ
T2 sequence (P11835 24-771, chain 2 of 2): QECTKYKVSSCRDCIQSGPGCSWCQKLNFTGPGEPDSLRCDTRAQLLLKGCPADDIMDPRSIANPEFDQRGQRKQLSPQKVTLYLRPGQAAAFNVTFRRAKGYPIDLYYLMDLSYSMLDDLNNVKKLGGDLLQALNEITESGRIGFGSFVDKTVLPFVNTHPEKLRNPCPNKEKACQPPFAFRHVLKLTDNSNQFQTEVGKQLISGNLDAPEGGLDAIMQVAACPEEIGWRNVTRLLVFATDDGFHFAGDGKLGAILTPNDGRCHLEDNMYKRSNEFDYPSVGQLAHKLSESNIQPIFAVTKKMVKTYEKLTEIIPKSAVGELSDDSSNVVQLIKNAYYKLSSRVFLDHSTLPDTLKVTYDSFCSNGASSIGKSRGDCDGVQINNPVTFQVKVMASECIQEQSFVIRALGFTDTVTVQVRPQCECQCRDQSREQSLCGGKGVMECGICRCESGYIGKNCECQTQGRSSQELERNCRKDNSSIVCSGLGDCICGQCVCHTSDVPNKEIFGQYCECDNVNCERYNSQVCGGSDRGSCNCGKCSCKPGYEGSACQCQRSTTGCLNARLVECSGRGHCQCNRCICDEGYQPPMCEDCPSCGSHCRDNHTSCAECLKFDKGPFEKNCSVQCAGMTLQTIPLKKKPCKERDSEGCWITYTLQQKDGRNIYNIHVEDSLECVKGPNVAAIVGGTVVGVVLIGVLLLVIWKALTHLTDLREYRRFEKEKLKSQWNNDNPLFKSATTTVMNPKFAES

KIM127 (Expression relative to IgG4) [1]	Mock/Mn^2+ Ratio [2]	m24 (Expression relative to IgG4) [3]	m24 (Expression relative to IgG4) [4]	KIM127 (Expression relative to IgG4) [5]	Mock MFI [6] [MFI]	Mn^2+ MFI [7] [MFI]	binding result [8]	Binder
1.11 relative to IgG4	0.91	0.44 relative to IgG4	0.23 relative to IgG4	0.63 relative to IgG4	41600	45700	–	anti-Mac-1 antibody clone H4L2 (antibody, human IgG4, V domains shown) VH: QVQLVQSGAEVKKPGASVKVSCKASGYTFTNYWINWVRQAPGQRLEWMGNIYPSDTYINHNQKFKDRVTITRDTSASTAYMELSSLRSEDTAVYYCARSAYANYFDYWGQGTLVTVSS VL: EIVMTQSPATLSVSPGERATLSCRASQNIGTSIHWYQQKPGQAPRLLIYYASESISGIPARFSGSGSGTEFTLTISSLQSEDFAVYYCQQSDSWPTLTFGQGTKLEIK
1.09 relative to IgG4	1.01	0.88 relative to IgG4	0.83 relative to IgG4	0.81 relative to IgG4	108000	107000	binds	anti-Mac-1 antibody clone m2396 (antibody, human IgG4, V domains shown) VH: QVQLQESGPGLVKPSETLSLTCTVSGFSLTSNSISWVRQPPGKGLEWMGAIWSGGGTDYNPSLKSRLTISRDTSKSQVFLKMSSLTAADTAIYFCTRGGYPYYFDYWGQGVLVTVSS VL: DIVMTQSPDSLAVSLGERVTINCKSSQSLLYSENQENYLAWYQQKPGQSPKLLIYWASTRQSGVPDRFSGSGSGTDFTLTISSVQAEDLAIYYCQQYYDTPLTFGGGTKLEIK
0.99 relative to IgG4	1.69	0.65 relative to IgG4	0.62 relative to IgG4	0.69 relative to IgG4	51800	30600	–	anti-Mac-1 antibody clone 28D06 (antibody, human IgG4, V domains shown) VH: QVKLQQSGPELVKPGASVKISCKASGYSFTDYNMNWVKQSNGKSLEWIGEINPNYGTTRYNQKFKGKATLTVDQSSSTAYMQLNSLTSEDSAVYYCARPSIYYDYDDAMDYWGQGTTVTVSS VL: DIELTQSPAIMSASPGEKVTMTCSASSSVNYMYWYQQKPGSSPRLLIYDTSNLASGVPVRFSGSGSGTSYSLTISRMEAEDAATYYCQQWITYPPTLTFGAGTKLEIK
1 relative to IgG4	1.12	0.64 relative to IgG4	0.85 relative to IgG4	0.71 relative to IgG4	56800	50800	–	anti-Mac-1 antibody clone 27E12 (antibody, human IgG4, V domains shown) VH: QVQLQQSGTVLARPGASVKMSCKASGYTFTSYWMHWVKQRPGQGLEWIGAIYPGNSDTSYNQKFKGKAKLTAVTSASTAYMELSSLTNEDSAVYYCTRGGGSYEFAYWGQGTTVTVSS VL: DIELTQSPAIMSASPGEKVTMTCSVSSSVSYMYWYQQKPGSSPRLLIYDTSNLASGVPARFSGSGSGTSYSLTISSMEAEDAATYYCQQWSSNPFTFGSGTKLEIK
2.23 relative to IgG4	1.17	24 relative to IgG4	4.34 relative to IgG4	1.75 relative to IgG4	35700	30500	–	anti-Mac-1 antibody clone DF4-25 (antibody, human IgG4, V domains shown) VH: EVQLVESGGGLVQPGGSLRLSCAASGFTFKDYWLSWVRQAPGKGLEWVSIINYGGSETYYADSVKGRFTISRDNSKNTLYLQMNSLRAEDTAVYYCARTQTSYVMDYWGQGTLVTVSS VL: DIQMTQSPSSLSASVGDRVTITCRASQSVRSGLNWYQQKPGKAPKLLIYAASSLQSGVPRRFSGSGSGTDFTLTISSLQPEDFATYYCMQSHSWPLTFGQGTKVEIK
2.22 relative to IgG4	1.25	25 relative to IgG4	3.85 relative to IgG4	1.64 relative to IgG4	55900	44800	–	anti-Mac-1 antibody clone 24G05 (antibody, human IgG4, V domains shown) VH: EVQLVESGGGLVQPGGSLRLSCAASGFTFTSYWMTWVRQAPGKGLEWVSTIVGGGGEADYADSVKGRFTISRDNSKNTLYLQMNSLRAEDTAVYYCARDYVADNHGAMDYWGQGTLVTVSS VL: DIQMTQSPSSLSASVGDRVTITCRASQGLSSYLNWYQQKPGKAPKLLIYGMSTLQSGVPSRFSGSGSGTDFTLTISSLQPEDFATYYCMQYYHWPYTFGQGTKVEIK
2.49 relative to IgG4	0.66	28.4 relative to IgG4	4.4 relative to IgG4	1.68 relative to IgG4	34600	52500	binds	anti-Mac-1 antibody clone DF3M-5 (antibody, human IgG4, V domains shown) VH: EVQLVESGGGLVQPGGSLRLSCAASGFTFGTYDMHWVRQAPGKGLEWVSMISPSGGDTYYADSVKGRFTISRDNSKNTLYLQMNSLRAEDTAVYYCARDSSGDWYAMAYWGQGTLVTVSS VL: DIQMTQSPSSLSASVGDRVTITCRASQSIRRYLAWYQQKPGKAPKLLIYGASNLQSGVPSRFSGSGSGTDFTLTISSLQPEDFATYYCQHSSDTPLTFGQGTKVEIK
2.05 relative to IgG4	1.17	19.1 relative to IgG4	4.01 relative to IgG4	1.71 relative to IgG4	39800	33900	–	anti-Mac-1 antibody clone 24F09 (antibody, human IgG4, V domains shown, also called 24F9) VH: EVQLVESGGGLVQPGGSLRLSCAASGFTFSSAWMSWVRQAPGKGLEWVSTIYWSGSEINYADSVKGRFTISRDNSKNTLYLQMNSLRAEDTAVYYCARSFASGESAMDVWGQGTLVTVSS VL: DIQMTQSPSSLSASVGDRVTITCRASQSISNYLAWYQQKPGKAPKLLIYDASNLQSGVPSRFSGSGSGTDFTLTISSLQPEDFATYYCQQYYSSPPTFGQGTKVEIK
2.17 relative to IgG4	1.19	21.2 relative to IgG4	4.01 relative to IgG4	1.73 relative to IgG4	50000	42100	–	anti-Mac-1 antibody clone 24F08 (antibody, human IgG4, V domains shown) VH: EVQLVESGGGLVQPGGSLRLSCAASGFTFSSYWMSWVRQAPGKGLEWVSIINYSGREADYADSVKGRFTISRDNSKNTLYLQMNSLRAEDTAVYYCARDGSYVGQAHEAFDIWGQGTLVTVSS VL: DIQMTQSPSSLSASVGDRVTITCRASQSISKYLAWYQQKPGKAPKLLIYGTSNLQSGVPSRFSGSGSGTDFTLTISSLQPEDFATYYCQQSRSWPLTFGQGTKVEIK
